T1: IL-2Rβ-Fc (Acro Biosystems, catalog #ILB-H5253) (UniProt P14784 27-239, limits assumed)
T1 construct: Bought reagent; Captured on an anti-Fc chip as SPR ligand; also called CD122; not shown: Fc part of the bought fusion
T1 sequence (looked up): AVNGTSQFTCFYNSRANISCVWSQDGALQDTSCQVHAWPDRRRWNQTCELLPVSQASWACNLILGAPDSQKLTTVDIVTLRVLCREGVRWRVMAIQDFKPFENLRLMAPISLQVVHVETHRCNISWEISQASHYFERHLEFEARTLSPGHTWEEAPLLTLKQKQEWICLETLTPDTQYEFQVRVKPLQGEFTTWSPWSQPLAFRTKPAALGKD

T2: IL-2Rα-Fc (Acro Biosystems, catalog #ILA-H5251) (UniProt P01589 22-217, limits assumed)
T2 construct: Bought reagent; Captured on an anti-Fc chip as SPR ligand; also called CD25; not shown: Fc part of the bought fusion
T2 sequence (looked up): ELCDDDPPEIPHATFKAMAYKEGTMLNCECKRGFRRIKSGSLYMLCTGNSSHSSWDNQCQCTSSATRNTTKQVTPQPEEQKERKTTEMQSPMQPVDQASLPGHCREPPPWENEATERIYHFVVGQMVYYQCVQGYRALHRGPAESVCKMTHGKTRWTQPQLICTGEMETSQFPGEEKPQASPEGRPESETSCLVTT


What was measured:
[1] = target: T1, IL-2Rβ-Fc (Acro Biosystems, catalog …); assay: SPR, kinetic binding to IL-2 receptor
[2] = target: T2, IL-2Rα-Fc (Acro Biosystems, catalog …); assay: SPR, kinetic binding to IL-2 receptor
[3] = target: T2, IL-2Rα-Fc (Acro Biosystems, catalog …); assay: SPR (Biacore T200), kinetic; receptor-Fc captured on anti-Fc CM5 chip, IL-2 variant as analyte
Experimental: (§1) Anti-Fc polyclonal antibodies were immobilized onto a CM5 chip (GE Life Sciences) using amine coupling chemistry (from Amine Coupling Kit, GE Life Sciences). The immobilization steps were carried out at a flow rate of 25 μL/minute in 1×HBS-EP+ buffer (GE Life Sciences; 10× Stock diluted before use). The sensor surfaces were activated for 7 minutes with a mixture of NHS (0.05 M) and EDC (0.2 M). The anti-Fc antibodies were injected over all four flow cells at a concentration of 25 μg/mL in 10 mM sodium acetate, pH 4.5, for seven minutes. Ethanolamine (1 M, pH 8.5) was injected for seven minutes to block any remaining activated groups.
(§2) Kinetic binding experiments were performed at 25° C. using 1×HBS-EP+ with 0.05% BSA buffer. IL-2Rα-Fc or IL-2Rβ-Fc (Acro Biosystems, catalog #ILA-H5251, ILB-H5253) was injected over the anti-Fc surface at concentrations of 3-10 μg/mL for 12 seconds at a flow rate of 10 μL/minute on flow cells 2, 3 and 4, followed by a buffer wash for 30 seconds at the same flow rate. Kinetic characterization of conjugated or unconjugated aldesleukin or variants was carried out in a range of concentrations from 1 nM-10 μM and one injection of no antigen. After capturing ligand (IL-2Rα-Fc or IL-2Rβ-Fc) on the anti-Fc surface, the analyte (IL-2 variant) was bound for 60 seconds, followed by a 180 second dissociation phase at a flow rate of 50 μL/min. Between each ligand capture and analyte binding cycle, regeneration was carried out using two injections of 10 mM Glycine pH 1.5 for 30 seconds at 30 μL/minute, followed by a 30 second buffer wash step.

[4] = target: T1, IL-2Rβ-Fc (Acro Biosystems, catalog …); assay: as above
Experimental: as §1, §2

[5] = target: T2, IL-2Rα-Fc (Acro Biosystems, catalog …); assay: SPR, receptor-Fc captured on anti-Fc chip

Row | Kd [1] [µM] | Kd [2] [µM] | Kd [3] [µM] | Binder | other results
1 | 0.7 | – | – | Aldesleukin_S4/Y30/K34 pAMF (SP10480) conjugated to SC547 stump (ligand, X5, X31, X35 = pAMF (S4, Y30, K34), each conjugated to SC547 (conjugation stump), also called SP10504 stump conjugate) MPTSFSTKKTQLQLEHLLLDLQMILNGINNFKNPFLTRMLTFKFYMPKKATELKHLQCLEEELKPLEEVLNLAQSKNFHLRPRDLISNINVIVLELKGSETTFMCEYADETATIVEFLNRWITFSQSIISTLT | –
2 | 0.5 | 0.1 | – | Aldesleukin_S4/K34/V114 pAMF (SP10774) conjugated to SC547 stump (ligand, X5, X35, X115 = pAMF (S4, K34, V114), each conjugated to SC547 (conjugation stump), also called SP10782 stump conjugate) MPTSFSTKKTQLQLEHLLLDLQMILNGINNYKNPFLTRMLTFKFYMPKKATELKHLQCLEEELKPLEEVLNLAQSKNFHLRPRDLISNINVIVLELKGSETTFMCEYADETATIFEFLNRWITFSQSIISTLT | –
3 | 0.2 | – | – | Aldesleukin_S4/Y30/K34/V114 pAMF (SP10777) conjugated to SC547 stump (ligand, X5, X31, X35, X115 = pAMF (S4, Y30, K34, V114), each conjugated to SC547 (conjugation stump), also called SP10785 stump conjugate) MPTSFSTKKTQLQLEHLLLDLQMILNGINNFKNPFLTRMLTFKFYMPKKATELKHLQCLEEELKPLEEVLNLAQSKNFHLRPRDLISNINVIVLELKGSETTFMCEYADETATIFEFLNRWITFSQSIISTLT | –
4 | 0.3 | 0.009 | – | Aldesleukin_S4/Y30/K34/Q73 pAMF (SP10776) conjugated to SC547 stump (ligand, X5, X31, X35, X74 = pAMF (S4, Y30, K34, Q73), each conjugated to SC547 (conjugation stump), also called SP10784 stump conjugate) MPTSFSTKKTQLQLEHLLLDLQMILNGINNFKNPFLTRMLTFKFYMPKKATELKHLQCLEEELKPLEEVLNLAFSKNFHLRPRDLISNINVIVLELKGSETTFMCEYADETATIVEFLNRWITFSQSIISTLT | –
5 | – | – | 0.007 | Ald-6HIS_Q73pAMF (SP9965), unconjugated (ligand, X74 = pAMF (Q73 in SEQ ID NO: 2/3 numbering), also called Aldesleukin-6His Q73TAG p-azidomethyl-L-phenylalanine) MPTSSSTKKTQLQLEHLLLDLQMILNGINNYKNPKLTRMLTFKFYMPKKATELKHLQCLEEELKPLEEVLNLAFSKNFHLRPRDLISNINVIVLELKGSETTFMCEYADETATIVEFLNRWITFSQSIISTLTGGSHHHHHH | Kd [4]: 0.08 µM
6 | – | – | – | SP10728 (Aldesleukin-6His_S4/Y30/K34/R80 pAMF F41K conjugated to SC579) (ligand, X5, X31, X35, X81 = pAMF (S4, Y30, K34, R80), each conjugated to SC579 (releasable 20 kDa mPEG Fmoc-DBCO linker), also called SP10728 PEG conjugate) MPTSFSTKKTQLQLEHLLLDLQMILNGINNFKNPFLTRMLTKKFYMPKKATELKHLQCLEEELKPLEEVLNLAQSKNFHLFPRDLISNINVIVLELKGSETTFMCEYADETATIVEFLNRWITFSQSIISTLTGGSHHHHHH | binding result [5]: no binding
7 | – | – | 0.1 | Ald-6HIS_R80pAMF (SP9968) conjugated to DBCO 2 x 10 kDa PEG (PEG2) (ligand, X81 = pAMF (R80) conjugated to branched 20 kDa PEG (DBCO 2 x 10 kDa PEG, PEG2), also called SP9968 PEG2 conjugated) MPTSSSTKKTQLQLEHLLLDLQMILNGINNYKNPKLTRMLTFKFYMPKKATELKHLQCLEEELKPLEEVLNLAQSKNFHLFPRDLISNINVIVLELKGSETTFMCEYADETATIVEFLNRWITFSQSIISTLTGGSHHHHHH | –
8 | 3 | 0.04 | – | Aldesleukin-6His_S4/K34/F77 pAMF (SP10682) conjugated to SC547 stump (ligand, X5, X35, X78 = pAMF (S4, K34, F77), each conjugated to SC547 (conjugation stump), also called SP10722 stump conjugate) MPTSFSTKKTQLQLEHLLLDLQMILNGINNYKNPFLTRMLTFKFYMPKKATELKHLQCLEEELKPLEEVLNLAQSKNFHLRPRDLISNINVIVLELKGSETTFMCEYADETATIVEFLNRWITFSQSIISTLTGGSHHHHHH | –
9 | – | – | 0.009 | Ald-6HIS_Y30pAMF (SP9957), unconjugated (ligand, X31 = pAMF (Y30 in SEQ ID NO: 2/3 numbering), also called Aldesleukin-6His Y30TAG p-azidomethyl-L-phenylalanine) MPTSSSTKKTQLQLEHLLLDLQMILNGINNFKNPKLTRMLTFKFYMPKKATELKHLQCLEEELKPLEEVLNLAQSKNFHLRPRDLISNINVIVLELKGSETTFMCEYADETATIVEFLNRWITFSQSIISTLTGGSHHHHHH | Kd [4]: 0.2 µM
10 | – | – | 0.3 | Ald-6HIS_Y30pAMF (SP9957) conjugated to DBCO 2 x 10 kDa PEG (PEG2) (ligand, X31 = pAMF (Y30) conjugated to branched 20 kDa PEG (DBCO 2 x 10 kDa PEG, PEG2), also called SP9957 PEG2 conjugated) MPTSSSTKKTQLQLEHLLLDLQMILNGINNFKNPKLTRMLTFKFYMPKKATELKHLQCLEEELKPLEEVLNLAQSKNFHLRPRDLISNINVIVLELKGSETTFMCEYADETATIVEFLNRWITFSQSIISTLTGGSHHHHHH | –
11 | 1 | 0.1 | – | Aldesleukin-6His_S4/Y30/K34/V114 pAMF (SP10687) conjugated to SC547 stump (ligand, X5, X31, X35, X115 = pAMF (S4, Y30, K34, V114), each conjugated to SC547 (conjugation stump), also called SP10727 stump conjugate) MPTSFSTKKTQLQLEHLLLDLQMILNGINNFKNPFLTRMLTFKFYMPKKATELKHLQCLEEELKPLEEVLNLAQSKNFHLRPRDLISNINVIVLELKGSETTFMCEYADETATIFEFLNRWITFSQSIISTLTGGSHHHHHH | –
